From patent US9120862

Columns and labels:
[1] = biological target: PIVKA-II antigen (Protein Induced by Vitamin K Absence II; decarboxylated prothrombin) (human) (UniProt P00734); experiment: … sandwich chemiluminescent immunoassay, 3C10 microparticles capture, conjugate detects; calibrator E, 7500 mAU/mL PIVKA; mean of 5
[2] = biological target: PIVKA-II antigen (Protein Induced by Vitamin K Absence II; decarboxylated prothrombin) (human) (UniProt P00734); experiment: … sandwich chemiluminescent immunoassay, 3C10 microparticles capture, conjugate detects; calibrator A, 0 mAU/mL PIVKA (blank); mean of 5
[3] = biological target: PIVKA-II antigen (Protein Induced by Vitamin K Absence II; decarboxylated prothrombin) (human) (UniProt P00734); experiment: … sandwich chemiluminescent immunoassay, 3C10 microparticles capture, conjugate detects; calibrator D, 750 mAU/mL PIVKA; mean of 5
[4] = biological target: PIVKA-II antigen (Protein Induced by Vitamin K Absence II; decarboxylated prothrombin) (human) (UniProt P00734); experiment: … sandwich chemiluminescent immunoassay, 3C10 microparticles capture, conjugate detects; calibrator F, 30000 mAU/mL PIVKA; mean of 5
[5] = biological target: PIVKA-II antigen (Protein Induced by Vitamin K Absence II; decarboxylated prothrombin) (human) (UniProt P00734); experiment: … sandwich chemiluminescent immunoassay, 3C10 microparticles capture, conjugate detects; calibrator B, 20 mAU/mL PIVKA; mean of 5
[6] = biological target: PIVKA-II antigen (Protein Induced by Vitamin K Absence II; decarboxylated prothrombin) (human) (UniProt P00734); experiment: … sandwich chemiluminescent immunoassay, 3C10 microparticles capture, conjugate detects; calibrator C, 100 mAU/mL PIVKA; mean of 5

RLU [1]: 204000 RLU | RLU [2]: 190 RLU | RLU [3]: 19000 RLU | RLU [4]: 871000 RLU | RLU [5]: 683 RLU | RLU [6]: 2600 RLU
Substance: control conjugate that reacts to human prothrombin (Abbott Japan, Tokyo, Japan) (antibody)
